# Source: IntAct's records for PubMed 9171338
# B1: Clathrin heavy chain (Saccharomyces cerevisiae), P22137 (parent)
# chain: MSDLPIEFTELVDLMSLGISPQFLDFRSTTFESDHFVTVRETKDGTNSVAIVDLAKGNEVTRKNMGGDSAIMHPSQMVISVRANGTIVQIFNLETKSKLKSFTLDEPVIFWRWLSETTLGFVTARSILTSNVFDGNVNAKPQLLTLRHANLNNTQIINFVANKNLDWFAVVGILQENGRIAGRIQLFSKQRNISQAIDGHVAIFTNILLEGNGSTPVQVFVTGNRNATTGAGELRIIEIDHDASLPSQYQKETTDIFFPPDATNDFPIAVQVSEKYGIIYLLTKYGFIHLYELETGTNLFVNRITAESVFTAAPYNHENGIACINKKGQVLAVEISTSQIVPYILNKLSNVALALIVATRGGLPGADDLFQKQFESLLLQNDYQNAAKVAASSTSLRNQNTINRLKNIQAPPGAISPILLYFSTLLDKGKLNKEETIELARPVLQQDRKQLFEKWLKEDKLECSEELGDIVKPFDTTLALACYLRAGAHAKVISCLAELQQFEKIIPYCQKVGYQPNFLVLISSLIRSSPDRASEFAVSLLQNPETASQIDIEKIADLFFSQNHIQQGTSLLLDALKGDTPDQGHLQTRVLEVNLLHAPQVADAILGNNIFSHYDKPTIASLSEKAGLYQRALENYTDIKDIKRCVVHTNALPIDWLVGYFGKLNVEQSLACLKALMDNNIQANIQTVVQVATKFSDLIGPSTLIKLFEDYNATEGLYYYLASLVNLTEDKDVVYKYIEAAAKMKQYREIERIVKDNNVYDPERVKNFLKDANLEDQLPLVIVCDRFDFVHEMILYLYKSQNLKFIETYVQQVNPSKTAQVVGALLDMDCDEAFIQSLLQSVLGQVPINELTTEVEKRNRLKILLPFLEQSLSQGIQDQAVYNALAKIYIDSNNSPEKFLKENDQYDTLDVGHYCEKRDPYLAYIAYEKGQNDDDLIRITNENSMYKYQARYLLERSDLDLWNKVLNQENIHRRQLIDSVISVGIPELTDPEPVSLTVQAFMTNGLKLELIELLEKIILEPSPFNENVALQGLLLLSAIKYEPTKVSSYIEKLDNYDADEIAPLCIEHDLKEEAFEIYDKHEMYGKALKVLIEDIMSLDRAASYADKINTPELWSQIGTAQLDGLRIPDAIESYIKAEDPSNYENVIDIAEQAGKYEELIPFLLMARKTLKEPKIDGALILAYAELNKIHEIENLLAGSNVANLDHVGDKLFENKEYKAARLCYSAVSNYSKLASTLVYLGDYQAAVDTARKASNIKVWKLVNDACIEKKEFKLAQICGLNLIVHAEELDELVERYESNGYFEELISLFEAGLGLERAHMGMFTELAILYSKYEPDKTFEHLKLFWSRINIPKVIRAVEQAHLWSELVFLYAHYDEWDNAALTLIEKSTKDLDHAYFKEVVVKVSNLEIYYKAINFYVKFHPSLLVDLLTSLTPRLDIPRTVKIFSKSDNLPLIKPFLINVLPKNNSVVNQAYHDLMIEEEDYKALQDAVDSYDKFDQLGLASRLESHKLIFFKKIGALLYRRNKKWAKSLSILKEEKLWKDAIETAAISQDPKVVEALLTYFVETGNREGFVALLYAAYNLVRIEFVLEISWMNSLEDYIKPFEISIKKEQNDSIKKITEELAKKSGSNEEHKDGQPLMLMNSAMNVQPTGF
# partner: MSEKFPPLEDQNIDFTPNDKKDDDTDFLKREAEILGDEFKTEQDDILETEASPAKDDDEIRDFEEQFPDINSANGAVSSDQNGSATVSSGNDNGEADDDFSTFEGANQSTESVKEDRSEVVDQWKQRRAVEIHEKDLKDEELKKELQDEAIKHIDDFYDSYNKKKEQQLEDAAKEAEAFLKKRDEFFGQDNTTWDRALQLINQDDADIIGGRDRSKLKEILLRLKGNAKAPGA
# Variants of: B1
# Details: with clc1_yeast CLC1, P17891
row,effect of a mutation on the interaction,Variant
1,disrupting interaction strength,E1590K
2,with no effect,S1331F;S1347F;P1553L
3,disrupting interaction strength,P1553L;E1590K
4,with no effect,S1347F;P1553L
5,disrupting interaction strength,S1331F;S1347F;P1553L;E1590K
6,disrupting interaction strength,S1331F;S1347F;E1590K
7,disrupting interaction strength,S1331F;S1347F;E1590A
8,with no effect,S1331F;S1347F
9,disrupting interaction strength,S1347F;P1553L;E1590K

# Variants of: B1
# Details: with clc1_yeast CLC1, P17891
# Remark: another data set of the same source
row,effect of a mutation on the interaction,Variant
1,disrupting interaction strength,E1590A
2,disrupting interaction strength,S1331F;S1347F;E1590A
